Experimental data reported in PMC10868440, “Structural characterization of the Sel1‐like repeat protein LceB from Legionella pneumophila” (Protein Science : A Publication of the Protein Society, 2024).
“And” between values parts separate entries of the source, which are not always exact repeats. Equal entries are not always repeated.

Columns and labels:
[1] = molecular target: full-length 6His-LceB (Legionella pneumophila Philadelphia-1) (UniProt Q5ZVT4); assay: mass photometry
mass photometry = molecular target: the molecule itself; assay: mass photometry

Row | Molecule | stoichiometry N [1] | stoichiometry N (mass photometry)
1 | full-length 6His-LceB (from UniProt Q5ZVT4 1-376) (natural protein) | 3 and 5 | 
2 | 6His-LceB (22-366) (domain or fragment, also called Lpg1356; truncated LceB crystallization construct; not shown: His6, N-terminal, kept) VGFAAFENGDYTTAYPHLMQAAKEGNEEAMYLLGRMYQYGYGVTTNYEEARNWYQKAADKNNALAQLSLGFMYDTGKGVSQDFTEAFKWYMKAAEQGNPIAQRNIGLMYATGDGVAASDDKAFNWFKKAAEQGYSKAQVNLGYQYMMGKGTPKDVKKAFEWYQKAAEQGDEKGEYSLGLLYTGQEGGIGADDKAAFYWFSQAANHGHVNAQTYLAYYYLKGYGVDADPVKAAYWYQSAAEKGQPEAQAQLGQLLLTGTGVDKDYQQAAYWFGKSAHQGNPIGQAKLGYMYLAGLGVNKSLVKAYAWLKIAAENKNEEAAKQLKSLEAKLTEPEKLEAEKMIKDLG |  | 2
3 | LceB no HT (22-366) (domain or fragment, also called LceB no His-tag; digested LceB) VGFAAFENGDYTTAYPHLMQAAKEGNEEAMYLLGRMYQYGYGVTTNYEEARNWYQKAADKNNALAQLSLGFMYDTGKGVSQDFTEAFKWYMKAAEQGNPIAQRNIGLMYATGDGVAASDDKAFNWFKKAAEQGYSKAQVNLGYQYMMGKGTPKDVKKAFEWYQKAAEQGDEKGEYSLGLLYTGQEGGIGADDKAAFYWFSQAANHGHVNAQTYLAYYYLKGYGVDADPVKAAYWYQSAAEKGQPEAQAQLGQLLLTGTGVDKDYQQAAYWFGKSAHQGNPIGQAKLGYMYLAGLGVNKSLVKAYAWLKIAAENKNEEAAKQLKSLEAKLTEPEKLEAEKMIKDLG |  | 2
